According to US20210347908A1 (ELPISCIENCE SUZHOU BIOPHARMA, published 2021):

T1: full length cyno SIRPα stably expressed on CHOK1 cells (cynomolgus monkey, UniProt A0A2K5VYQ9 31-507)
T1 construct: whole, on cells; also called CHOK1-cyno SIRPα-2A2 cells; CHOK1-cyno SIRPα
T1 sequence: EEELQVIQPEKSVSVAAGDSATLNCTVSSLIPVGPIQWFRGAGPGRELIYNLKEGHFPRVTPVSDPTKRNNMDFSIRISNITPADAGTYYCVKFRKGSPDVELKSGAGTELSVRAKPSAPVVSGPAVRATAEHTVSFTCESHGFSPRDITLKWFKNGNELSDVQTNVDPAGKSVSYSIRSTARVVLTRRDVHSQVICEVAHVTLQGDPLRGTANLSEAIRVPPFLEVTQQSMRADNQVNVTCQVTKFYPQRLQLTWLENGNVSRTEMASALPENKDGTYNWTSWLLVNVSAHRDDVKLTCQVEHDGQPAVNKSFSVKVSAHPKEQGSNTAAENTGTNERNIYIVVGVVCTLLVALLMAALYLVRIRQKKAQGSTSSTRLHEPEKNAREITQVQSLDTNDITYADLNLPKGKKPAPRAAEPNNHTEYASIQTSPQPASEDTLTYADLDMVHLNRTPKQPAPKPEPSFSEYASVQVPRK

T2: full length C57BL/6 mouse SIRPα stably expressed on CHOK1 cells (mouse (C57BL/6), UniProt P97797 32-513)
T2 construct: whole, on cells; also called CHOK1-C57BL/6 mouse SIRPα-2.22 cells
T2 sequence (looked up): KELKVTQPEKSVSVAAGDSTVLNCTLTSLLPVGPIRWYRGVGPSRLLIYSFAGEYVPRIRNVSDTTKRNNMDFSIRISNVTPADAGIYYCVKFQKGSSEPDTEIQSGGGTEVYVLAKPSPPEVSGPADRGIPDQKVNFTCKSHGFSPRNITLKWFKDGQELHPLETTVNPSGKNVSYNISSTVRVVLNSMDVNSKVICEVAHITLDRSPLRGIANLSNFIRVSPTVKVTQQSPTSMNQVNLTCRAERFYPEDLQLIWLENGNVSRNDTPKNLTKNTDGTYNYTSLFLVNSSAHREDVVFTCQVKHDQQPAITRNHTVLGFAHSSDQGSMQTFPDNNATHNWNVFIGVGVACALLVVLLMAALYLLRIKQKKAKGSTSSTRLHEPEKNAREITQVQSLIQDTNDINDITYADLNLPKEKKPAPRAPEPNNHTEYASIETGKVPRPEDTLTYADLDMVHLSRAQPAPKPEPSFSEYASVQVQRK


Assays:
[1] = target: T3, biotin labeled soluble human SIRPα v1 ECD recombinant protein (human, UniProt P78324 31-373, biotin labeled); assay: competitive ELISA; competitor KWAR23
T3 construct: extracellular domain
Experimental: (§1) Competitive ELISA assay was used for epitope binning of 9 functional antibodies. Briefly excessive competitor antibody and biotin labeled soluble human SIRPα v1 ECD recombinant protein were co-incubated with ELISA microplate coated antibody. After washing, HRP-SA was added and incubated at 37° C. for 1 hour. Then, […] of TMB solution (Biotechnology) was added. After incubation for 15 minutes at room temperature, the reaction was stopped by the addition of […] of 1N HCl. OD 450 nm was read. Competition ratio was calculated. The antibodies that can compete each other for binding to SIRPα have the similar binding epitope.

[2] = target: T3, biotin labeled soluble human SIRPα v1 …; assay: competitive ELISA; competitor 060
Experimental: as §1

[3] = target: T1, full length cyno SIRPα stably expressed …; assay: FACS on CHOK1 cells
[4] = target: T4, Fc tagged human SIRPα v1 ECD recombinant protein (human, UniProt P78324 31-370); assay: ELISA
T4 construct: range 1-370; cloned range M1-R370 includes the signal peptide; also called hSIRPα V1; not shown: human IgG Fc region (hFc) of the pCPC vector
Experimental: (§2) Binding specificity of the purified hybridoma antibodies against SIRP family members was detected by ELISA assay using recombinant proteins of Fc tagged human SIRPα v1 ECD, human SIRPα v2 ECD, human SIRPβ ECD and human SIRPγ ECD. Briefly the antibodies were incubated with ELISA microplate coated antigens at 37° C. for 1 hour. After washing, horseradish peroxidase (HRP) labeled anti-mouse or anti-human IgG 2nd Ab (Sigma) was added and incubated at 37° C. for 1 hour. Then, 100 μl/well of TMB solution (Biotechnology) was added. After incubation for 15 minutes at room temperature, the reaction was stopped by the addition of 50 μl of 1N HCl. OD 450 nm was read and EC₅₀ was calculated. Other than 060 and HEFLB, all of the antibodies as tested can bind with both human SIRPα v1 and SIRPα v2. 060 and HEFLB can bind with human SIRPα v1 but not v2. Other than 055, all of the antibodies as tested can bind with human SIRPβ. In comparison with other known anti-SIRPα antibodies, only 022, 035 and 050 can bind with human SIRPγ weakly.

[5] = target: T5, Fc tagged human SIRPβ ECD recombinant protein (human, UniProt O00241 30-371); assay: ELISA
T5 construct: range 1-371; cloned range includes the signal peptide; also called hSIRPβ; not shown: human IgG Fc region (hFc) of the pCPC vector
Experimental: as §2

[6] = target: T3, biotin labeled soluble human SIRPα v1 …; assay: competitive ELISA; competitor 032
Experimental: as §1

[7] = target: T3, biotin labeled soluble human SIRPα v1 …; assay: competitive ELISA; competitor 001
Experimental: as §1

[8] = target: T6, Fc tagged human SIRPα v2 ECD recombinant protein (human); assay: ELISA
T6 construct: range 1-369; cloned range M1-R369 includes the signal peptide; also called hSIRPα V2
Experimental: as §2

[9] = target: T2, full length C57BL/6 mouse SIRPα stably …; assay: FACS on CHOK1 cells

% Competition [1] | % Competition [2] | binding result [3] | EC50 [4] | EC50 [5] | % Competition [6] | % Competition [7] | EC50 [8] | MFI at 2 ug/ml [9] | EC50 [3] | MFI at 10 nM [3] | binding result [9] | Binder
94% | 7% | no binding (tested: 10 nM) | 0.17 nM | 0.17 nM | 91% | 89% | – | – | – | – | – | reference antibody HEFLB (antibody, V domains shown) VH: EVQLVQSGAEVKKPGESLRISCKASGYSFTSYWVHWVRQMPGKGLEWMGNIDPSDSDTHYSPSFQGHVTLSVDKSISTAYLQLSSLKASDTAMYYCVRGGTGTLAYFAYWGQGTLVTVSS VL: DVVMTQSPLSLPVTLGQPASISCRSSQSLVHSYGNTYLYWFQQRPGQSPRLLIYRVSNRFSGVPDRFSGSGSGTDFTLKISRVEAEDVGVYYCFQGTHVPYTFGGGTKVEIK
95% | 5% | – | 0.17 nM | 0.18 nM | 82% | 85% | 0.22 nM | – | – | – | – | reference antibody KWAR23 (antibody, V domains shown) VH: EVQLQQSGAELVKPGASVKLSCTASGFNIKDYYIHWVQQRTEQGLEWIGRIDPEDGETKYAPKFQDKATITADTSSNTAYLHLSSLTSEDTAVYYCARWGAYWGQGTLVTVSS VL: QIVLTQSPAIMSASPGEKVTLTCSASSSVSSSYLYWYQQKPGSSPKLWIYSTSNLASGVPARFSGSGSGTSYSLTISSMEAEDAASYFCHQWSSYPRTFGAGTKLELK
– | – | – | – | – | – | – | – | 310 MFI | 0.42 nM | – | – | chimeric antibody 035c (antibody, V domains shown) VH: QIQLVQSGPELRKPGETVKISCKASGYSFTNYAMNWVKQAPGKVLKWMGFINTYTGEPTYADDFKGRFAFSLETSASTAYLQINNLKNEDTATYFCTRTRGYYDFDGGAFDYWGQGTSLTVSS VL: DIVMTQSQKFMSTSIGDRVSVTCKASQNVGTHLAWYQQKPGQSPKALIFSASYRYIGVPDRFTGSGSGTDFTLTITNVQSEDLAEYFCQQYNTYPLTFGAGTKLELK
-6% | -1% | – | 0.03 nM | 0.02 nM | 89% | 92% | 0.04 nM | – | – | 8310 MFI | – | Antibody 035 (hybridoma antibody) (antibody, V domains shown, mouse hybridoma antibody) VH: QIQLVQSGPELRKPGETVKISCKASGYSFTNYAMNWVKQAPGKVLKWMGFINTYTGEPTYADDFKGRFAFSLETSASTAYLQINNLKNEDTATYFCTRTRGYYDFDGGAFDYWGQGTSLTVSS VL: DIVMTQSQKFMSTSIGDRVSVTCKASQNVGTHLAWYQQKPGQSPKALIFSASYRYIGVPDRFTGSGSGTDFTLTITNVQSEDLAEYFCQQYNTYPLTFGAGTKLELK
83% | 19% | – | 0.07 nM | 0.12 nM | 96% | 96% | 0.07 nM | – | – | 8030 MFI | no binding (tested: 100 nM) | Antibody 001 (hybridoma antibody) (antibody, V domains shown, mouse hybridoma antibody) VH: EVKLEESGGGLVQPGGSMKLSCVASGFTFRNYWMNWVRQSPERGLEWIAEISLKSNTYATHYAESVKGRFAISRDGSKSSFYLQMNDLRAEDTGIYYCTTFTKVVADWHLDVWGAGTTVTVSS VL: DVLMTQTPLSLPVSLGDQASISCRSSQNIVHSNGNTYLEWYLQKPGQSPKLLIYKVSNRFSGVPDRFSGSGSGTDFTLRISRVEAEDLGVYYCFQGSHVPFTFGSGTKLEIK
71% | -10% | – | 0.11 nM | 0.16 nM | 92% | 94% | 0.1 nM | – | – | 7540 MFI | no binding (tested: 100 nM) | Antibody 002 (hybridoma antibody) (antibody, V domains shown, mouse hybridoma antibody) VH: EVKLEESGGGLVQPGGSMILSCVASGFTFRNYWMNWVRQSPERGLEWIAEITLKSNTYATHYAESVKGRFAISRDDSKSSFYLQMNDLRPEDTGIYYCTTFTKVVADWHLDVWGAGTTVTVSS VL: DVLMTQTPLSLPVSLGDQASISCRSSQNIVHSNGNTYLEWYLQKPGQSPKLLIYKISNRFSGVPDRFSGSGSGTDFTLRISRVEAEDLGVYYCFQGSHVPFTFGSGTKLEIQ
69% | 7% | – | 0.03 nM | 0.02 nM | 94% | 94% | 0.04 nM | – | – | 6860 MFI | no binding (tested: 100 nM) | Antibody 032 (hybridoma antibody) (antibody, V domains shown, mouse hybridoma antibody) VH: EVRLEESGGGLVQPGGSMKLSCVVSGFTFRNYWMNWVRQSPERGLEWIAEITLKSNTYATHYAESVKGRFAISRDDSKSSFYLQMNDLRPEDTGIYYCTTFTKVVADWHLDVWGAGTTVTVSS VL: DVLMTQTPLSLPVNLGDQASISCRSSQNIVHSNGNTYLEWYLQKPGQSPKLLIYKVSNRFSGVPDRFSGSGSGTDFTLRISRVEAEDLGVYYCFQGSHVPFTFGSGTKLEIK
93% | 10% | – | 0.15 nM | 0.21 nM | 97% | 97% | 0.2 nM | – | – | 37900 MFI | – | reference antibody 29-AM4-5 (antibody, V domains shown) VH: EVQLVESGGGLVQPGGSLRLSCAASGFNISYYFIHWVRQAPGKGLEWVASVYSSFGYTYYADSVKGRFTISADTSKNTAYLQMNSLRAEDTAVYYCARFTFPGLFDGFFGAYLGSLDYWGQGTLVTVSS VL: DIQMTQSPSSLSASVGDRVTITCRASQSVSSAVAWYQQKPGKAPKLLIYSASSLYSGVPSRFSGSRSGTDFTLTISSLQPEDFATYYCQQAVNWVGALVTFGQGTKVEIK
-4% | 93% | no binding (tested: 10 nM) | 0.03 nM | 0.04 nM | 4% | 0% | – | – | – | – | no binding (tested: 100 nM) | Antibody 060 (hybridoma antibody) (antibody, V domains shown, mouse hybridoma antibody) VH: QVQLKESGPGLVAPSESLSITCTVSGFSLTNYDISWIRQSPGKGLEWLGVIWTGGDTNFNSAFMSRLSISKDKSKSQVFLKLNSLQTDDTAIYYCVRVQYFGGSYGPMDYWGQGISVTVSS VL: DIQMTQASSYLSVSLGGRVTITCEASDHINDWLAWYQQTPGNAPRLLISGATSLETGVPSRFSGSGSGKDYTLSITSLQTEDIATYYCQQYWNTPLTFGAGTRLELK
